{"source": "the emibetuzumab library of Makowski et al. (2022)", "parents": {"B1": {"name": "VH:VL chains; a variant is named by its letters at X, in order (parent)", "chain 1": "QVQLVQSGAEVKKPGASVKVSCKASGYTFTDYXMHWVRQAPGQGLEWMGXVNPNXXXTTYNQKFEGRVTMTTDTSTSTAYMELRSLRSDDTAVYYCARXNXLDXWGQGTTVTVSS", "chain 2": "DIQMTQSPSSLSASVGDRVTITCSVSSSVSSIYLHWYQQKPGKAPKLLIYSTSNLASGVPSRFSGSGSGTDFTLTISSLQPEDFATYYCQVYSGYPLTFGGGTKVEIK"}}, "data": [{"variants_of": "B1", "assay": "yeast display scFab, FACS + sequencing", "procedure,_shortened": "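Non-specific binding was called from deep sequencing of sorted yeast cells displaying a heavy-chain CDR mutant scFab library. Cells labelled with anti-Myc and biotinylated ovalbumin (260 μg/mL in PBSB, 3 h, room temperature) or soluble membrane proteins (130 μg/mL, 20 min on ice) were FACS-sorted, collecting the top 25% and bottom 10% of binders from two replicates. A sequence was positive when present in ≥3 of 4 pooled positive samples and absent from all negatives, and negative under the converse rule.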", "values": [{"variant": "YKGKGALD", "non-specific binding call": "binds"}, {"variant": "YKGKGALA", "non-specific binding call": "binds"}, {"variant": "VKGKGDLA", "non-specific binding call": "no binding"}, {"variant": "YKGRGALA", "non-specific binding call": "binds"}, {"variant": "YKGRGALF", "non-specific binding call": "binds"}, {"variant": "YKGRAAGS", "non-specific binding call": "binds"}, {"variant": "AKGRAAAS chain 1 D103N", "non-specific binding call": "binds"}, {"variant": "YKGKGSGF", "non-specific binding call": "binds"}, {"variant": "YKGKGSGS", "non-specific binding call": "binds"}, {"variant": "YKGKGSGA", "non-specific binding call": "binds"}, {"variant": "SKGASAWA", "non-specific binding call": "binds"}, {"variant": "YKGKGSVV", "non-specific binding call": "binds"}, {"variant": "YKGKGSVS", "non-specific binding call": "binds"}, {"variant": "YKGKGSVA", "non-specific binding call": "binds"}, {"variant": "SKGEGDWA", "non-specific binding call": "no binding"}, {"variant": "VKGRASAF", "non-specific binding call": "no binding"}, {"variant": "VKGRASAS", "non-specific binding call": "no binding"}, {"variant": "YKGKGAWA", "non-specific binding call": "binds"}, {"variant": "YKGKGAWS", "non-specific binding call": "binds"}, {"variant": "YKGKGAWY", "non-specific binding call": "binds"}, {"variant": "YKGKGAWV", "non-specific binding call": "binds"}, {"variant": "YKGKGAWD", "non-specific binding call": "binds"}, {"variant": "DKERGDLV", "non-specific binding call": "no binding"}, {"variant": "VKGRAAVA", "non-specific binding call": "no binding"}, {"variant": "SKERGDGA", "non-specific binding call": "no binding"}, {"variant": "FKGEGSSA", "non-specific binding call": "no binding"}, {"variant": "YKGEADGA", "non-specific binding call": "no binding"}, {"variant": "VKERGDAV", "non-specific binding call": "no binding"}, {"variant": "YKGGGAGA", "non-specific binding call": "binds"}, {"variant": "YKGGGAGS", "non-specific binding call": "binds"}, {"variant": "VKGKSSWS", "non-specific binding call": "binds"}, {"variant": "FKGKSSSD", "non-specific binding call": "binds"}, {"variant": "FKGEGDGV", "non-specific binding call": "no binding"}, {"variant": "DKGGGFAV", "non-specific binding call": "no binding"}, {"variant": "YKERGDVF", "non-specific binding call": "binds"}, {"variant": "YKERGDVV", "non-specific binding call": "no binding"}, {"variant": "YKGAGAWA", "non-specific binding call": "binds"}, {"variant": "FKGEGYGV", "non-specific binding call": "binds"}, {"variant": "FKGGSSAA", "non-specific binding call": "binds"}, {"variant": "FKGRGALA", "non-specific binding call": "binds"}, {"variant": "VKGAGAAS", "non-specific binding call": "binds"}, {"variant": "VKGGNVGV", "non-specific binding call": "binds"}, {"variant": "YKGAAFWA", "non-specific binding call": "binds"}, {"variant": "FKGGGFGA", "non-specific binding call": "binds"}, {"variant": "VKGEAAWD", "non-specific binding call": "binds"}, {"variant": "YKGAAFAD", "non-specific binding call": "binds"}, {"variant": "YKGRDASD", "non-specific binding call": "binds"}, {"variant": "VKGRADAV", "non-specific binding call": "no binding"}, {"variant": "VKGRADAD", "non-specific binding call": "no binding"}, {"variant": "VKGRADAA", "non-specific binding call": "no binding"}, {"variant": "VKGRAYGV", "non-specific binding call": "no binding"}, {"variant": "SKERGDWY", "non-specific binding call": "no binding"}, {"variant": "SKERGDWV", "non-specific binding call": "no binding"}, {"variant": "VKGRADGV", "non-specific binding call": "no binding"}, {"variant": "VKGRADGS", "non-specific binding call": "no binding"}, {"variant": "VKGKGAWD", "non-specific binding call": "binds"}, {"variant": "YKGGSAWY", "non-specific binding call": "binds"}, {"variant": "YKGRGAGY", "non-specific binding call": "binds"}, {"variant": "YKGRGAGF", "non-specific binding call": "binds"}, {"variant": "VKGRASSV", "non-specific binding call": "no binding"}, {"variant": "YKGAGSAD", "non-specific binding call": "binds"}, {"variant": "YKGRAALY", "non-specific binding call": "binds"}, {"variant": "VKGASDGA", "non-specific binding call": "no binding"}, {"variant": "VKGKGASA", "non-specific binding call": "binds"}, {"variant": "VKGGGFGA", "non-specific binding call": "binds"}, {"variant": "VKERGAVA", "non-specific binding call": "no binding"}, {"variant": "FKGRGAAS", "non-specific binding call": "binds"}, {"variant": "FKGRGAAD", "non-specific binding call": "binds"}, {"variant": "FKGRGAAV", "non-specific binding call": "binds"}, {"variant": "FKGRGAAY", "non-specific binding call": "binds"}, {"variant": "FKGGGAVY", "non-specific binding call": "binds"}, {"variant": "YKGGGYGA", "non-specific binding call": "binds"}, {"variant": "AKGKGAAV", "non-specific binding call": "binds"}, {"variant": "YKGRASAV", "non-specific binding call": "binds"}, {"variant": "SKGKGSSA", "non-specific binding call": "binds"}, {"variant": "SKGKGVGA", "non-specific binding call": "binds"}, {"variant": "VKERGSVD", "non-specific binding call": "binds"}, {"variant": "SKERGDVD", "non-specific binding call": "no binding"}, {"variant": "SKERGDVA", "non-specific binding call": "no binding"}, {"variant": "SKERGDVV", "non-specific binding call": "no binding"}, {"variant": "YKGAGALD", "non-specific binding call": "binds"}, {"variant": "YKGKGSSS", "non-specific binding call": "binds"}, {"variant": "YKGKGSSY", "non-specific binding call": "binds"}, {"variant": "YKERDVGV", "non-specific binding call": "binds"}, {"variant": "SKGRADVY", "non-specific binding call": "no binding"}, {"variant": "FKGKGSWD", "non-specific binding call": "binds"}, {"variant": "DKGGSDVA", "non-specific binding call": "no binding"}, {"variant": "DKGGSDVV", "non-specific binding call": "no binding"}, {"variant": "YKGGSSGV", "non-specific binding call": "binds"}, {"variant": "DKGEGAGV", "non-specific binding call": "no binding"}, {"variant": "SKERGDLV", "non-specific binding call": "no binding"}, {"variant": "VKGRASGF", "non-specific binding call": "no binding"}, {"variant": "VKGRASGY", "non-specific binding call": "no binding"}, {"variant": "YKGRDAGD", "non-specific binding call": "binds"}, {"variant": "YKGRDAWD", "non-specific binding call": "binds"}, {"variant": "SKGASFAY", "non-specific binding call": "binds"}, {"variant": "VKGAGDLA", "non-specific binding call": "no binding"}, {"variant": "FKGRDSGS", "non-specific binding call": "binds"}, {"variant": "YKGKGYVD", "non-specific binding call": "binds"}, {"variant": "DKGEGDLA", "non-specific binding call": "no binding"}, {"variant": "YKGKDSSV", "non-specific binding call": "no binding"}, {"variant": "VKGRADLY", "non-specific binding call": "no binding"}, {"variant": "VKGRADLV", "non-specific binding call": "no binding"}, {"variant": "FKGGNVGV", "non-specific binding call": "binds"}, {"variant": "FKGKGAWY", "non-specific binding call": "binds"}, {"variant": "FKGKGSGA", "non-specific binding call": "binds"}, {"variant": "YKGKGSAV", "non-specific binding call": "binds"}, {"variant": "YKGKGSAA", "non-specific binding call": "binds"}, {"variant": "VKGESAGV", "non-specific binding call": "no binding"}, {"variant": "FKGEGDSA", "non-specific binding call": "no binding"}, {"variant": "YKGAGDVV", "non-specific binding call": "no binding"}, {"variant": "VKEKGDWV", "non-specific binding call": "no binding"}, {"variant": "YKGRGAAF", "non-specific binding call": "binds"}, {"variant": "YKGRGAAY", "non-specific binding call": "binds"}, {"variant": "YKGRGAAS", "non-specific binding call": "binds"}, {"variant": "YKGKDSVD", "non-specific binding call": "no binding"}, {"variant": "YKGKGAVA", "non-specific binding call": "binds"}, {"variant": "YKGGSFGV", "non-specific binding call": "binds"}, {"variant": "VKGGAAVY", "non-specific binding call": "no binding"}, {"variant": "FKGKGFGA", "non-specific binding call": "binds"}]}]}
